# Residue numbers refer to the chain shown, from its start. Names and notes keep the numbering of the source. Read-outs that look alike come from different tables or passages of the source.
# B1: PVAM-S (PV R32A), soluble, FLAG and hexahistidine tags (designed binder)
# chain: DYKDDDDKIAEPAMIAECHPIETLVDILQEYPDEIGYIFKPSCVPLMRCGGCCNNRNVQCRPTEESNITMQIMRIKPHRGQHIGEMSFLQHNKCRCETVAAGSTSGSGKSSEGKGEVVKFMDVYQRSYCKTRTEVFEISRRLIDATNANFLVWPPCVEVQRCSGCCNHEGLECVPTQVQLRPVQVRKIEFVRKKPIFKKATVTLEDHLACECRPKKDHHHHHH
# notes: Secreted from S. cerevisiae YVH10 and treated with Endo Hf
# B2: PV3 PDGF/VEGF hybrid construct, yeast-displayed (designed binder)
# chain: IAEPAMIAECKTRTEVVDIFQEYPDEIEYIFKPSCVPLMRCSGCCNNRNVQCRPTEESNITMQIMRIKPHQGQHIGEMSFLQHLACKCETVAAGSTSGSGKSSEGKGEVVKFMDVYQRSYCHPIETLFEISRRLIDRTNANFLVWPPCVEVQRCGGCCNDEGLECVPTQVQLRPVQVRKIEIVRKKPIFKKATVTLEDHNKCECRPKKD
# notes: only PV1
# B3: PV7 PDGF/VEGF hybrid construct, yeast-displayed (designed binder)
# chain: B2 chain with T14E, E15T, V16L, L84N, A85K, E125T, T126E, L127V, N200L, K201A
# notes: the text names only PV6
# B4: PV8 PDGF/VEGF hybrid construct, yeast-displayed (designed binder)
# chain: B2 chain with R13I, T14E, E15T, V16L, I124R, E125T, T126E, L127V
# notes: the text names only PV6
# B5: PV5 PDGF/VEGF hybrid construct, yeast-displayed (designed binder)
# chain: B2 chain with V17F, D18E, F128V, E129D
# notes: only PV1
# B6: PV4 PDGF/VEGF hybrid construct, yeast-displayed (designed binder)
# chain: B2 chain with V17F, F128V
# notes: only PV1
# B7: PVGS, yeast-displayed (designed binder)
# chain: IAEPAMIAECHPIETLVDILQEYPDEIGYIFKPSCVPLMRCGGCCNNRNVQCRPTEESNITMQIMRIKPHRGQHIGEMSFLQHNKCRCETVAAGGGGSGGGGSGGGGSGGGGSEVVKFMDVYQRSYCKTRTEVFEISRRLIDATNANFLVWPPCVEVQRCSGCCNHEGLECVPTQVQLRPVQVRKIEFVRKKPIFKKATVTLEDHLACECRPKKD
# B8: PV6 PDGF/VEGF chimera, yeast-displayed (designed binder)
# chain: IAEPAMIAECHPIETLVDIFQEYPDEIEYIFKPSCVPLMRCGGCCNNRNVQCRPTEESNITMQIMRIKPHQGQHIGEMSFLQHNKCKCETVAAGSTSGSGKSSEGKGEVVKFMDVYQRSYCKTRTEVFEISRRLIDRTNANFLVWPPCVEVQRCSGCCNDEGLECVPTQVQLRPVQVRKIEIVRKKPIFKKATVTLEDHLACKCRPKKD
# B9: PVAM-S (PV R32A), yeast-displayed (designed binder)
# chain: B8 chain with F20L, E28G, Q71R, K87R, R137A, D160H, I182F, K203E
# notes: PVAM with R137A (R32A in PDGF-B numbering); also called R137A variant
# B10: V3-3, yeast-displayed variant from the Vshuf library (designed binder)
# chain: B8 chain with M6V, F20L, E28G, Q71R, D160H, K203E
# B11: V5-5, yeast-displayed variant from the Vshuf library (designed binder)
# chain: B8 chain with M6V, F20L, E28G, Q71R, D160H, K203E, D209V
# B12: PV6 K87R variant, yeast-displayed (designed binder)
# chain: B8 chain with K87R
# notes: Clone from the PDGFR sorts of the error-prone library made from PV6; also called PV K87R
# B13: PV6 I182F variant, yeast-displayed (designed binder)
# chain: B8 chain with I182F, K203E
# notes: Clone from the PDGFR sorts of the error-prone library made from PV6; also called PV I182F
# Legend:
# [1] = target: PDGFRβ on DiscoveRx PathHunter U2OS PDGFRβ reporter cells (UniProt P09619 33-1106, limits assumed); assay: cell-based or functional assay
# Sequence of PDGFRβ on DiscoveRx PathHunter U2OS PDGFRβ reporter cells (P09619 33-1106 limits assumed): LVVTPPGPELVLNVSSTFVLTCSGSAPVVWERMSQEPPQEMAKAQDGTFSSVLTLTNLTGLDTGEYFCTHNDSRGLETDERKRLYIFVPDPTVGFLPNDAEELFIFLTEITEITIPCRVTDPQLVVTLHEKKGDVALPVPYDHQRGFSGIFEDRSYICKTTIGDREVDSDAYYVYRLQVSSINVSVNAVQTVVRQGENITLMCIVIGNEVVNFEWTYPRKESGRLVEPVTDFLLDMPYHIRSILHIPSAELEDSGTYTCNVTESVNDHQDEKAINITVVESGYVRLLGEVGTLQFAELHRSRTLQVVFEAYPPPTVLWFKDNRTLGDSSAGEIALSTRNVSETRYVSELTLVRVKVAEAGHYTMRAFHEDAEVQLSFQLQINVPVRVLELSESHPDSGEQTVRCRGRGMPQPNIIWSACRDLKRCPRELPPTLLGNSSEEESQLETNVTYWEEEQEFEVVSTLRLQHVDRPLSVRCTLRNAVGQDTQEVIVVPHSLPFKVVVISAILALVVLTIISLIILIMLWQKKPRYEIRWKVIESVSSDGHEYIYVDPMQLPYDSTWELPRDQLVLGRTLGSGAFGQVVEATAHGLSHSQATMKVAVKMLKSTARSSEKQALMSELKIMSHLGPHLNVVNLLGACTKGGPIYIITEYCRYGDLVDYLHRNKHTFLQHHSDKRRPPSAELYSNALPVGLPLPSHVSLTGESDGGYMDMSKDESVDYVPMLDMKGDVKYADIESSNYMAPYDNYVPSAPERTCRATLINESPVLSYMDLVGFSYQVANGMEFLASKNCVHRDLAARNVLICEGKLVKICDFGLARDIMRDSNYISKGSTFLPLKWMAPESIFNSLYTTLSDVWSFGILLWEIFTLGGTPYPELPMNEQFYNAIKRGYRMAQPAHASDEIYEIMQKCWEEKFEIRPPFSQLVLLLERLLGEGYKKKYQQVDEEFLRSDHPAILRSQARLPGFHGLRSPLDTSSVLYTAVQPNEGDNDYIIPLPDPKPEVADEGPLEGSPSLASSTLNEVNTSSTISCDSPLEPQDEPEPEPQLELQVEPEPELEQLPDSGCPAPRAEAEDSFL
# [2] = target: T1, human VEGFR on human umbilical vein endothelial cells (HUVECs) (human, UniProt P35968 20-1356); assay: flow cytometry titration of the soluble FLAG-tagged protein on HUVECs, anti-FLAG detection
# T1 construct: The phosphorylation blots on these cells detect VEGFR2
# T1 sequence (P35968 20-1356 limits assumed): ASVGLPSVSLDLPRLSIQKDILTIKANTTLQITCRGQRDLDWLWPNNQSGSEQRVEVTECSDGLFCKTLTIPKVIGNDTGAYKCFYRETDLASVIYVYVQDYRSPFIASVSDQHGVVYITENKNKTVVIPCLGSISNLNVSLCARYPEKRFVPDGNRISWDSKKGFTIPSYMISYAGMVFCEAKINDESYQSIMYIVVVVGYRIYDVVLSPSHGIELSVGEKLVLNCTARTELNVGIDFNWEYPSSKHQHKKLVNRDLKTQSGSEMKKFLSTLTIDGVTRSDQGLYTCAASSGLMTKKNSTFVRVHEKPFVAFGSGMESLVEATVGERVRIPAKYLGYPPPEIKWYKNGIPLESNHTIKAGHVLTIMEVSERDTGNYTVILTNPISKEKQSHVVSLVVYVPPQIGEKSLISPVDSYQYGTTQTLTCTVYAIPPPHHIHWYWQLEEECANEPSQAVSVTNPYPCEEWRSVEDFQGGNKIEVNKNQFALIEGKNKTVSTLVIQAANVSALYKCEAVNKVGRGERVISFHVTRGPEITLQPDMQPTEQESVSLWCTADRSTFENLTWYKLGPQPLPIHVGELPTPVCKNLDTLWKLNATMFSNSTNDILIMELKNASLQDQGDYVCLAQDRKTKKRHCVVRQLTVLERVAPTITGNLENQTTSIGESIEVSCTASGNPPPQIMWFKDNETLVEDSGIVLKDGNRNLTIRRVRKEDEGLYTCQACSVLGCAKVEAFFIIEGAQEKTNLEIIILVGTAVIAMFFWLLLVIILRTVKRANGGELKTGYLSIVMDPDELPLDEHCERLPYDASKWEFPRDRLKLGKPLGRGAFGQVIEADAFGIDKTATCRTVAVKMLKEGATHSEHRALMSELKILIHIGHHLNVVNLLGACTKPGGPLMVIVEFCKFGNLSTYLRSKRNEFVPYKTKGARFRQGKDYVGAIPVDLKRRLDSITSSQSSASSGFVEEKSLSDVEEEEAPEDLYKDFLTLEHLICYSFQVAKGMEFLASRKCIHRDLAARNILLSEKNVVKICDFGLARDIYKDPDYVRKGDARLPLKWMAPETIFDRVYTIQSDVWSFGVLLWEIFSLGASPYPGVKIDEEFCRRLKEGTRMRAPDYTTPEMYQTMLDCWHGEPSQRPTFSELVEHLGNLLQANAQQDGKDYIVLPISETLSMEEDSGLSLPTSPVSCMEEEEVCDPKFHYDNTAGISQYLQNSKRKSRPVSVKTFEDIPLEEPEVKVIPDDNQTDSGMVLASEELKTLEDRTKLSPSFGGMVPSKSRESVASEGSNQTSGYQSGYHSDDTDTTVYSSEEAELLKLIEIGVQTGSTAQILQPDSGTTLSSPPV
# Protocol: (§1) To test binding to VEGFR, human umbilical vein endothelial cells (HUVECs) and murine angiosarcoma endothelial cells (SVR) were used.
# (§2) Cell-binding assay. Varying concentrations of scPDGF, scVEGF, and PDGF/VEGF ligands were incubated with 25,000 PDGFR- or VEGFR-expressing cells in binding buffer (20 mM Tris pH 7.5 with 1 mM MgCl₂, 1 mM MnCl₂, 2 mM CaCl₂, 100 mM NaCl, and 1 mg/ml BSA) for 5 hr (BJ-5ta, NIH/3T3) or 3 hr (HUVEC, SVR) at 4° C. Cells were washed and pelleted, then incubated with 1:100 R-PE-conjugated anti-FLAG antibody (Prozyme) for 15 min on ice. Cells were washed, pelleted, and resuspended in binding buffer immediately before analysis by flow cytometry using BD Accuri C6. Flow cytometry data were analyzed using BD Accuri C6 software, and statistical analysis was performed using GraphPad Prism 6.
# [3] = target: T1, human VEGFR on human umbilical vein …; assay: flow cytometry on HUVECs, soluble ligand titrated 3 h at 4 C, anti-FLAG-PE
# Protocol: as §1, §2
# [4] = target: T2, soluble PDGFRβ (Fc or His format not stated for the experiment) (human, UniProt P09619 33-532); assay: yeast surface display, flow cytometry dot plot: soluble receptor bound (FL1) against surface expression (FL2); receptor concentration not printed [Cont.]
# T2 construct: extracellular domain
# T2 sequence (P09619 33-532): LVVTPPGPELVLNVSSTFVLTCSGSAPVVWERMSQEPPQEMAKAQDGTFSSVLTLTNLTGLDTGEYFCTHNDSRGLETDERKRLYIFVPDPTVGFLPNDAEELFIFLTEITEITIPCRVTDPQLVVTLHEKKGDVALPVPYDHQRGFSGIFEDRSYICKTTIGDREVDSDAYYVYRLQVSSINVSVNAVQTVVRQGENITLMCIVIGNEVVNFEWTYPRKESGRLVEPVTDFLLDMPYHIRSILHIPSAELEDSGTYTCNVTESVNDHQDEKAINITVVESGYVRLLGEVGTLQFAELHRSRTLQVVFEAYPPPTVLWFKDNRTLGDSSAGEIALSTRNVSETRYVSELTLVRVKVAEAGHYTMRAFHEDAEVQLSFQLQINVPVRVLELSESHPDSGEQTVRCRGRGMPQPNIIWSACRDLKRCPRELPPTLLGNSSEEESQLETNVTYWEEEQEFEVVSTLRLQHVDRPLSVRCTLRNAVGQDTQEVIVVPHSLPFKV
# [5] = target: T3, soluble VEGFR2 (Fc or His format not stated for the experiment) (human, UniProt P35968 20-764); assay: as above
# T3 construct: extracellular domain
# T3 sequence (P35968 20-764): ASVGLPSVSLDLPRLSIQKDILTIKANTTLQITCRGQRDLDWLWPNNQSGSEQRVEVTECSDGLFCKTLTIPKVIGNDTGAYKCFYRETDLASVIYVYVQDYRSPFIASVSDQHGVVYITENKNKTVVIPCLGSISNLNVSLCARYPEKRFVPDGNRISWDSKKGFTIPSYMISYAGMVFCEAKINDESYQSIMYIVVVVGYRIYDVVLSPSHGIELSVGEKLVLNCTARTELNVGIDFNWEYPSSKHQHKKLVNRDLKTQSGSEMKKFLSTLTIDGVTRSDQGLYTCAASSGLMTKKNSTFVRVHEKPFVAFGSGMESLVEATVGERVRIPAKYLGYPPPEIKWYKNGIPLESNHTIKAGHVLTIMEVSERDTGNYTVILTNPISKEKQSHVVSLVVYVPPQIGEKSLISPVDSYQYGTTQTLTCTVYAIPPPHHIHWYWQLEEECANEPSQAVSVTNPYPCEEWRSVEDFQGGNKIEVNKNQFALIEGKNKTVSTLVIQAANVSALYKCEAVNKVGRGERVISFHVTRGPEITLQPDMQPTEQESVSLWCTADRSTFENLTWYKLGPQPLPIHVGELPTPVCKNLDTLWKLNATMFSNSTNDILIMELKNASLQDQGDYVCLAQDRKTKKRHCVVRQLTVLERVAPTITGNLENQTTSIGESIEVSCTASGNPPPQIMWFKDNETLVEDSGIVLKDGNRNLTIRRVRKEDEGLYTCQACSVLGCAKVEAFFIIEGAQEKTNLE
# [6] = target: T3, soluble VEGFR2 (Fc or His format not …); assay: yeast surface display, flow cytometry dot plot: soluble receptor bound (FL1) against surface expression (FL2); receptor concentration not given
# [7] = target: T4, VEGFR2-His (residues 1-764 of VEGFR2, Ig-like domains 1-7, with hexahistidine tag) (human, UniProt P35968 20-764); assay: yeast surface display, flow cytometry equilibrium titration of VEGFR2-His, normalized fluorescence
# T4 construct: range 1-764; Monomeric form, expressed in FreeStyle 293-F cells; also called VEGFR-His
# T4 sequence (P35968 other isoform, or with tags, fused parts or gaps limits assumed, form in doubt): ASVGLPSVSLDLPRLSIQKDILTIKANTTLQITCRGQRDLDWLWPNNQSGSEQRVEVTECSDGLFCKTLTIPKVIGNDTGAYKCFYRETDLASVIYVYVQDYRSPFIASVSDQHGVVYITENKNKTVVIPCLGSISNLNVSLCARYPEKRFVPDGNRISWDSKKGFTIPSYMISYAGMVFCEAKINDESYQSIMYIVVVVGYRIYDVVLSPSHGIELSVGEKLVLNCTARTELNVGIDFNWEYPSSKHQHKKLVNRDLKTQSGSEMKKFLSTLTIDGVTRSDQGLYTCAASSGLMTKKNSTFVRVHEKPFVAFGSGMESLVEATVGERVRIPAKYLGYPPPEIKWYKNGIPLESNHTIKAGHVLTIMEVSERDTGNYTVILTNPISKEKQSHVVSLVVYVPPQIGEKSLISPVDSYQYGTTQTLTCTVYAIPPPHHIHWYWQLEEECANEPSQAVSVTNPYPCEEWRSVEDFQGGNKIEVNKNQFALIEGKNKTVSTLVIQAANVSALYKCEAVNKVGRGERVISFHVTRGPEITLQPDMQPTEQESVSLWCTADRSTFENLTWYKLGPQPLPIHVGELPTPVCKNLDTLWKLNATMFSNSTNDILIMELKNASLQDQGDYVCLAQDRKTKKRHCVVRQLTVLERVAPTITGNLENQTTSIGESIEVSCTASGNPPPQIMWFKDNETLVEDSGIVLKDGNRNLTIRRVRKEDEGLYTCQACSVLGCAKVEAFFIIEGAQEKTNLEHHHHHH
# Protocol: (§3) Cells were incubated in large enough volumes to avoid ligand depletion and appropriate time to reach equilibrium. During the last hour of incubation, yeast were incubated with 1:250 dilution of chicken anti-c-Myc (Invitrogen) in PBSA. […] Yeast were washed, pelleted, and resuspended in PBSA immediately before analysis by flow cytometry using BD FACSCalibur or BD Accuri C6. Flow cytometry data were analyzed using FlowJo (v7.6.1 and v10, Treestar) or BD Accuri C6 software. Statistical analysis was performed using GraphPad Prism 6.
# [8] = target: T5, PDGFRβ-His (residues 1-314 of PDGFR-β with C-terminal hexahistidine tag) (human, UniProt P09619 33-314); assay: yeast surface display, flow cytometry equilibrium titration of PDGFRβ-His (panel 'PDGFR-His'), normalized fluorescence
# T5 construct: range 1-314; Monovalent form, expressed in FreeStyle 293-F cells; also called PDGRβ-His; PDGFR-His
# T5 sequence (P09619 other isoform, or with tags, fused parts or gaps limits assumed, form in doubt): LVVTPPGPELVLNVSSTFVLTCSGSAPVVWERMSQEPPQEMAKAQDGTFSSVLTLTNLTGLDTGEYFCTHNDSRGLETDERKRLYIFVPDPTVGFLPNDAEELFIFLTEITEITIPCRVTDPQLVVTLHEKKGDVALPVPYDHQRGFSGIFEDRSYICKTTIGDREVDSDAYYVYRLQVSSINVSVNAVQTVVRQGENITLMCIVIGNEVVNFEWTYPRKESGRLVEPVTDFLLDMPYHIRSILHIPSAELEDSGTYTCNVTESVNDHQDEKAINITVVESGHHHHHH
# Protocol: as §3
# [9] = target: T4, VEGFR2-His (residues 1-764 of VEGFR2, …); assay: yeast surface display titration, flow cytometry
# Protocol: as §3
# [10] = target: T5, PDGFRβ-His (residues 1-314 of PDGFR-β …); assay: yeast surface display titration, flow cytometry
# Protocol: as §3
# [11] = target: T4, VEGFR2-His (residues 1-764 of VEGFR2, …); assay: yeast surface display titration, flow cytometry; remark: listed apart in the source
# Protocol: as §3
# [12] = target: T5, PDGFRβ-His (residues 1-314 of PDGFR-β …); assay: yeast surface display titration, flow cytometry; remark: listed apart in the source
# Protocol: as §3
# [13] = target: T5, PDGFRβ-His (residues 1-314 of PDGFR-β …); assay: yeast surface display titration, flow cytometry; PDGFRβ-His (monovalent)
# Protocol: We tested the monovalent version of PDGFR (PDGRβ-His) to remove any avidity effects that may affect the measurements.
# as §3
# [14] = target: T2, soluble PDGFRβ (Fc or His format not …); assay: yeast surface display, flow cytometry titration of soluble receptor; panel 'PDGFR binding', Fc or His form not given
# [15] = target: T2, soluble PDGFRβ (Fc or His format not …); assay: yeast surface display titration; table under the panel 'PDGFR binding', Fc or His form not given
# [16] = target: T5, PDGFRβ-His (residues 1-314 of PDGFR-β …); assay: yeast surface display, flow cytometry titration of PDGFRβ-His
# Protocol: as §3
# [17] = target: T6, PDGFRβ-Fc (residues 1-314 of PDGFR-β fused to the Fc region of mouse IgG2a) (human; mouse, UniProt P09619 33-314); assay: yeast surface display titration, flow cytometry; PDGFRβ-Fc (bivalent)
# T6 construct: range 1-314; Expressed in FreeStyle 293-F cells; also called PDGRβ-Fc; PDGFR-Fc; not shown: Fc region of mouse IgG2a
# T6 sequence (P09619 33-314 limits assumed, form in doubt): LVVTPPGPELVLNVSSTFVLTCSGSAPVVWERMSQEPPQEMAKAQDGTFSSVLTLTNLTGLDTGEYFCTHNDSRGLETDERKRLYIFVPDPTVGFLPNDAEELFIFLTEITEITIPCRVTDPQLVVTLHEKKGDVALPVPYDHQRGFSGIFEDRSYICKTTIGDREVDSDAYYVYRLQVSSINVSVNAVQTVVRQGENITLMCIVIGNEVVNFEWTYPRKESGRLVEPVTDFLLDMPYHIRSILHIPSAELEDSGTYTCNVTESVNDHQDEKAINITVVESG
# Protocol: as §3
# VEGFR2-Fc (R&D Systems) = target: T7, VEGFR2-Fc (R&D Systems) (human, UniProt P35968 20-764); assay: yeast surface display, flow cytometry titration of VEGFR2-Fc
# T7 construct: extracellular domain; Bought reagent; also called VEGFR-Fc; not shown: Fc part, detected with anti-human-IgG (Fc specific)
# T7 sequence (P35968 20-764): as the sequence (P35968 20-764) above
# Protocol: as §3
# [18] = target: T6, PDGFRβ-Fc (residues 1-314 of PDGFR-β …); assay: yeast surface display, flow cytometry titration of PDGFRβ-Fc
# Protocol: as §3
binder,measurement,setting,value
B1,"IC50 of inhibition of stimulation by 0.5 nM PDGF-BB, PathHunter PDGFRβ reporter cells",[1],1.4 nM
same,EC50 (read off the curve),[2],~0.7 nM
same,Kd,[3],0.53 nM
B2,binding result,[4],no binding
same,binding result,[5],no binding
B3,binding result,[6],binds
B4,binding result,[6],binds
B5,binding result,[4],no binding
same,binding result,[5],no binding
B6,binding result,[4],no binding
same,binding result,[5],no binding
B7,EC50 (read off the curve),[7],~1 nM
same,EC50 (read off the curve),[8],~0.3 nM
same,Kd,[9],1.1 nM
same,Kd,[10],0.25 nM
B8,Kd,[11],230 nM
same,Kd,[12],270 nM
same,Kd,[13],140 nM
same,EC50 (read off the curve),[14],~100 nM
same,Kd,[15],140 nM
same,EC50 (read off the curve),[16],~100 nM
same,Kd,[17],0.099 nM
B9,EC50 (read off the curve),[7],~1 nM
same,Kd,[9],1 nM
same,Kd,[10],0.34 nM
B10,binding result,VEGFR2-Fc (R&D Systems),binds
B11,binding result,VEGFR2-Fc (R&D Systems),binds
B12,Kd,[13],6.4 nM
same,EC50 (read off the curve),[16],~6 nM
same,Kd,[17],0.049 nM
same,EC50 (read off the curve),[18],~0.05 nM
B13,Kd,[13],2.5 nM
same,EC50 (read off the curve),[16],~3 nM
same,Kd,[17],0.067 nM
same,EC50 (read off the curve),[18],~0.07 nM

# Source: patent US20180111972A1 (Stanford University, published 2018)
